The data set is described as follows: label from the status in PepcDB records.
On to “MQRLLLASSLLLALSACSDKSAPANTADAAAPAAAPAATAPATAPELIPRDALFGNPERASVRISPDGKYLSWVAPLDGVLNVWVAPVDAPDKARAITKDTARGIRSYYWTYHSDTLLYLRDTGGDEDFHLYAVNLSDGSSKDLTPFKKTNAEVYGISDQHPDAIMVGMNDRDAKWHDLYKVELASGTRTLVQKNTDSLDSYLLDGNYQLRYATRATDDAGRELLVPEGKGWKSVDRIPFEDVTNTAPAGLTDDGKTLYMLDSRNRDTAALYAIDTASNARTLLFEDARADAGSTLNDPKTGVVQAVSTDYLREEWKTLDTSIAADLQKLKSLGPGDAGIAARTLDDRTWIVAYSAAETPLTYYRYDRADGGKLTKLFSARPALEGKPLVPMWPQEIAARDGLKLVSYLSLPAEADSNHDGKADKAVPLVLFVHGGPWARDSYGYGAYEQWLANRGYAVLSVNFRGSTGFGKAFTNAGNGEWAGKMHYDLLDAVQWAVKQGVTTPQDVAIMGGSYGGYATLVGMTFTPDAFKCGVDIVGPANLNTLLGTVPPYWASFYKQLTKRMGDPATAAGKQWLTERSPLSHVDKISKPLLIGQGANDPRVKQAESDQIVNAMKAKNIPVTYVLFPDEGHGFQRPENSKAFNAVTEGFLSQCLGGRAQPIGADFEGSSITVPEGADRITGLADALKTHTQAIRK”, for which the protein production entry is given as “failed”.
As for “MQRQGSGGGSAVIRVRVAGGVLLAAHLMLVVWITLRPLDVPWVSPANLHPFAGIRADLALGPREAVRRIGEGLGLLAPLGVLLPMVAGRLAVSPLASLTRTVAAGALISLGIELLQTGVPGQVVDVDSLLLNTVGVALAHLAIVPAGRARLRRRAETRRRAALGREELSQGLTPTIPRVGIAP”, the entry is “failed”.
The value for “MQRRLERFDAKLVQSGLDALLVTGQNNIYYLTDFWGTNATVFITKNRRLFLTDSRYTLIAKQSVHGFDIIESKDPLKDIVKFVEVDKLETIGFDNQVSFAYYQALQAIFEGYTLSPQTNFMEELRMIKDEKELATIRKACSISDRAFTDVLDFIKPGQTTELQVANFLDFRMREYGASGISFESIIASGYRSAMPHGVASDKVIQSGETLTMDFGCYYNHYVSDMTRTIHIGETTDEEREIYDIVLRSNRALIDATKAGMTRRDYDKVARDVIVEAGYGDYFTHGIGHGIGLDIHEIPYFGNSDETIEAGMVLTDEPGIYLADKYGVRIEDDIIITENGCEVITLAPKELIVL” was “failed”; that for “MQRYETTSVQNITQQYVHWFRHSAPYINAHRNKTLVLMFGGEAVQHPNFQHIIHDIALLHSLGIRLILVHGARPQINQNLQEKQIETPIHLHRRVTTRESLACVMNAVGSIRLEIEALLSMGLANSPMFGARIDVVSGNFVTAKPYGIRDGVDFQLTGEVRAIDTDAIQRHLDNHNIVVLGPTGYSTTGEVFNLLAEEVATKTATALHADKLIFLGKKQGLLSDQGKLLRELTPQQLEPYIKHFQQLDHEMALHLQGAQTASLSGVHRVHLISYAYDGALIEELFTRDGIGTMITDAHYEDVRTATIQDVGGLINLLRPLEEEGILVYRSRERLESEISQFAVIERDGMILACAALYPIPTAKNEIRSAEIACVAVDPAYRKSNRGSQILHFLEEKARQEGILQLFVLTTRTAHWFLEHGFQTASVDDLPSARQELYNYQRNSLVFKKILM” was “failed”.
As for “MQSKAHALTFTVLPITQKTDQWSVKVSEAKNVKEFTRPHKGEYQVYSLGSQKYRGKSSYSGCAIVLEHHHHHH”, the entry is “not failed”; as for “MQSSLSFSCGVKSTMAKSPVEVNLIPIEATPETFAEYGQVIEASRDGAGYGPNDAQLDLSKGIPRLYILRLKETPLGFFKITHHAKVTQCLGSIGGDIWYMGVAKPSLIEDDDDGRRVDTVKAKSGHLYIPPEVEEIRVFRFSGPKFVKLHRGTWHAGPLFSGSSIMDFYNLELSNTNVVDHTSHDFTKNNGVSFRFDT”, “failed”.
In the case of “MQSTDLGNKESGKIWHRKPSPATHDGIIVNIVHSTSEYHPKVLRFLNVAFDGSGDSFIAGDHQGNIYVFDLHGNRFNLVQRTAQACTALAFNLRRKSEFLVALADYSIKCFDTVTKELVSWMRGHESSVCSISVHASGRYAITTSSDTAQLWDLDTFQRKRKLNIRQSVGIQKVFFLPLSNTILSCFKDNSIFAWECDTLFCKYQLPGPPEGSNILYKVFAVTRDGRILAAGGKSNHLHLWCLEATGLFRIIQMPAKVRAVRHLEFLPDSFDAGSNQVLGVLSQDGIMRFVNIQTCKLLFEIGTVEEGISSSVISPHGRYIASIMENGSLNVYSVQALTQEINKPPPPLVKVIEDLPSNTVSSSNLKMKIMPGRVQRPARCKESKIPTRVLKQDLTGDLENKENELSEGLNKKRLQILLKGYGEYPTKYRMFIWRSLLQLPENHTAFSSLVDKGTHAAYLSLQKKYPIKSRKLLRVLQRTLSALAHWSAIFSDTPYLPLLAFPFVKLFQNNQLICFEVVATLIINWCQHWFEYFPNPPINILSMIENVLAFHDKELLQHFIDRDITSQVYAWPLLETLFSEVLTREEWLRLFDNIFSNHPSFLLMTVVAYSTCSRAPLLNCTLKNDFEYFFHHRNNLDINVVIREVYHLMETTPADIHPNSMLDAFVALTKGQYPIFNQYPKFIVDYQTREWERIRNDELDFLRERQTVENMQAEVDEQRAKDEAWYQKQELLRRAEETRREILLQEEEKMAQQRQRLAAVKRELEIKEIHLQDAARRRLLKLQQDQREMELRRLEDEIERKVQMRDQEIAATAKDLEIRQLELEAQKRLYEKYSFSLSFMQNIV”, the protein production entry is reported as “failed”.
As for “MQTDEKLHVLLADDDPIMLARLSRQLEADGHHVASRRDGETALAYALEHQPEMVITDWHMKPMNGLELCRALRESALGGNVYIVMLTASESEDALVEAFGAGIDDYVIKPPSVRVLKARIRAGQRIITLHKKLARERKEIERYSSELAAANRRLELMAHTLEHHHHHH”, the entry is “failed”; as for “MQTLNDIYLAYLDSLNHQAFDELGTFVDDNVEHNGRPFGLSGYRDMLVKDFADIPDLRFEAEILVSDATRLAARLFFDCTPKSIFMDLPVNGRRVQFCEHVFYDFEQAKIRRVWSVLDKVAIERQLG”, “not failed”; as for “MQTSFCVLVSIIERMPTWNDIKVRNPQHSHNYAKRWENLEAEGNDINGEARLIDALVQRGSKILDAGCGQGRVGGYLSARGHIVTGIDIDDYLISEAEKKFPSATWHVGDLGSESIPDQGFDIAVCAGNVITFIEPDKQEAALAHIFEALRPNGRCIIGFGAGRGYVFPQFFEDARNVGFVIENNFESWGLNPLTNRSQFLVAFLRKPELEHHHHHH”, “failed”.
“MQVELIIKNLKVYNSYFKKFIKSDVLINEGKFLHIGKGYEDRLWSENIIDGEDKYIIPGLIDIHMHIESSMTIPREFSKAAIKHGVTTVVADPHEIANVFGVRGIEEFIKFKGNLDIFYGILEHHHHHH”: the protein production entry is “failed”.
The value for “MQVFIMRHGDAALDAASDSVRPLTTNGCDESRLMANWLKGQKVEIERVLVSPFLRAEQTLEEVGDCLNLPSSAEVLPELTPCGDVGLVSAYLQALTNEGVASVLVISHLPLVGYLVAELCPGETPPMFTTSAIASVTLDESGKGEFNWQMSPCNLKMAKAI” was “not failed”.
In the case of “MQVFLQGLLFGIVYIAPIGMQNLFVVSTAIEQPLQRALRVALIVIAFDTSLSLACFYGVGRLLQTTPWLELGVLLIGSLLVFYIGWNLLRKKATAMGTLDADFSYKAAILTAFSVAWLNPQALIDGSVLLAAFRVSIPAALTHFFMLGVILASIIWFIGLTSLISKFKHLMQPRVLLWINRICGGIIILYGVQLLATFITKI”, the protein production entry is “failed”.
As for “MQVISPSSPAPRFAGKERFSEVYGELNDDFGSKLKISSKEEENRDDDSWWNQNGTDKDDEGREEDFSFASVNADNSPITADEAFEDGQIRPVYPLFNRNIFFDDPEEKTLRSPLKKLFVESTTTEEEEEESDTVGPYCSWTNRTVEQASPETCRKSNSTGFSKLWRFRDLVLRSNSDGKDAFVFLSNGSSSTSSTSSTAARLSGVVKSSEKGKEKTKTDKKKDKMRTKSAHEKLYMRNRAMREEGKRRSYLPYKHVGFFTNVNGLTRNVHPY”, the entry is “failed”; as for “MQVITSVKEAKQIVKDWKSHQLSIGYVPTMGFLHDGHLSLVKHAKTQDKVIVSIFVNPMQFGPNEDFSSYPRDLERDIKMCQDNGVDMVFIPDATQMYLKNFSTYVDMNTITDKLCGAKRPGHFRGVCTVLTKFFNILNPDIVYMGQKDAQQCVVVRHMVDDLNFDLKIQICPIIREEDGLAKSSRNVYLSKEERKASLAISQSIFLAEKLVREGEKNTSKIIQAMKDILEKEKLIKIDYIELVDFNTMENIENITDNVLGAVAAFVGKTRLIDNFLVQGLK”, “not failed”.
For the sequence “MQVLHVCSEMFPLLKTGGLADVIGALPAAQIADGVDARVLLPAFPDIRRGVTDAQVVSRRDTFAGHITLLFGHYNGVGIYLIDAPHLYDRPGSPYHDTNLFAYTDNVLRFALLGWVGAEMASGLDPFWRPDVVHAHDWHAGLAPAYLAARGRPAKSVFTVHNLAYQGMFYAHHMNDIQLPWSFFNIHGLEFNGQISFLKAGLYYADHITAVSPTYAREITEPQFAYGMEGLLQQRHREGRLSGVLNGVDEKIWSPETDLLLASRYTRDTLEDKAENKRQLQIAMGLKVDDKVPLFAVVSRLTSQKGLDLVLEALPGLLEQGGQLALLGAGDPVLQEGFLAAAAEYPGQVGVQIGYHEAFSHRIMGGADVILVPSRFEPCGLTQLYGLKYGTLPLVRRTGGLADTVSDCSLENLADGVASGFVFEDSNAWSLLRAIRRAFVLWSRPSLWRFVQRQAMAMDFSWQVAAKSYRELYYRLK”, the protein production entry is recorded as “failed”.
Take “MQVQHHNAHLSRSVQAQVARLVLQANLAYGESNSNGLSYIQRLKARNECREYLNQALALEADHAAALGLLGRVEMDDGQLEKAHALFNASLNRQPAQAQQYCNLGYWALKSERPALAEEYFLQALECDRQSAAAFCGVAHAKRLQGQFDVAYLHYRKLLQSGSEWDSVYSGMLSCAQHLQVHKADSDLALDAIALLRQEGLPHQEIGHFVGAIIQQQYDLDNPNAEIFLDAAAEDELLILALQKTLMPNAAVEELVVLLRRAIMAEVAQTASLRDELQPLCLAIAEYADRTGFALAAEDDEERLAATINESIMAQFAVGEPQEALIGSLMISAMYGALFHQNFAVQLGQWNLVDWPLAMQPIMAASYYNRAEEEAIKQNFDEKAEELCLEKTDVPQAWPAWSQLAYRTETSLKAVMAQELGLNTDNLPATLRIMVCGAQSGQRAMELAQYLNDVEVIAVDESLANIAKGTRMAQSLNMDNIVFWPWSIAQRFVADGHKVHWVEVGRLPSPAMTELSLAALINSASIAGAVVHMHTSMAEQTAGDKQIRRLIAEHQLQPTRTSLRQLRRMVLANKQDAVWSSLLQDDDFYSLGGCRDRWFRPQDANQLKELLALVSNEVEWKLVKARDEDGHSLATGPVQRQIQAEALGSEVQSLMGQNLSVYFQRRR”: the protein production result is recorded as “failed”.
The value for “MQVSVETTQGLGRRVTITIAADSIETAVKSELVNVAKKVRIDGFRKGKVPMNIVAQRYGASVRQDVLGDLMSRNFIDAIIKEKINPAGAPTYVPGEYKLGEDFTYSVEFEVYPEVELQGLEAIEVEKPIVEVTDADVDGMLDTLRKQQATWKEKDGAVEAEDRVTIDFTGSVDGEEFEGGKASDFVLAMGQGRMIPGFEDGIKGHKAGEEFTIDVTFPEEYHAENLKGKAAKFAINLKKVEERELPELTAEFIKRFGVEDGSVEGLRAEVRKNMERELKSAIRNRVKSQAIEGLVKANDIDVPAALIDSEIDVLRRQAAQRFGGNEKQALELPRELFEEQAKRRVVVGLLLGEVIRTNELKADEERVKGLIEEMASAYEDPKEVIEFYSKNKELMDNMRNVALEEQAVEAVLAKAKVTEKETTFNELMNQQA” was “not failed”; that for “MQWQESLPWTPEARQKLKNIPYFARVQARQRIEQLARQADLDEVTVDLVEQARLEFGQ” was “failed”; that for “MQWRNTSSRYGVFSLFLHWGSALVVFGLFGLGLWMRELSYYDPWYHPAPALHKSIGILLAIALLVRIVWRFVSPPPPAPANHGPLTRVASKLGHLALYGLLLAVIVAGYLISTADGEPISVFGWFSVPATLSGLPDQADVAGEIHLYLAWALVVFAVLHALAALKHHFVDRDPTLKRMLGRSSNDQQPR” was “not failed”.

For the origin of these results see a protein production outcome set (Wang et al. 2014).
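Note: failed if final PepcDB status was selected cloned or expressed and not failed if soluble or beyond.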
